Publication PMC3192995

Experiments:
Assay in all cases: two-hybrid
[1] = target: PwHAP5 N77, residues 1-77, fused in pGBKT7 (yeast two-hybrid bait) (Picea wilsonii)
[2] = target: PwHAP5, full-length coding region, fused in pGBKT7 (yeast two-hybrid bait) (Picea wilsonii)
[3] = target: PwHAP5 C130, residues 92-221, fused in pGBKT7 (yeast two-hybrid bait) (Picea wilsonii)

fold beta-galactosidase activity over the controls [1]: 20 fold
fold beta-galactosidase activity over the controls [2]: 20 fold
fold beta-galactosidase activity over the controls [3]: 20 fold
Substance: PwFKBP12 in pGADT7-Rec (yeast two-hybrid prey) (natural protein)
